Values joined by “and” are separate entries in the source; they are usually repeats but may differ in a detail not shown here. Equal entries are not always repeated.
Key:
[1] = target: Cy3-labeled hHsp70 (E315C/I427C or I427C/K559C; variant not told for the printed rate); assay: FRET or BRET
[2] = target: hHsp70 NBD–SBDβ labeling variant E315C/I427C (human) (UniProt P0DMV8); assay: FRET or BRET
[3] = target: the two labeling variants of hHsp70 containing the T204A mutation; assay: FRET or BRET
[4] = target: hHsp70 (human Hsp70A1), variant not told for the experiment (human) (UniProt P0DMV8); assay: SEC
[5] = target: the two labeling variants of hHsp70 in the ATP-bound state (direct binding of JGF); assay: FRET or BRET

## Hdj1, human type II Hsp40 homolog, full-length (from UniProt P25685 1-340) (natural protein)
[1]
  apparent rate constant of the fast binding phase: 1.2 s⁻¹
[2]
  kon: 350000 M⁻¹ s⁻¹
[3]
  rate constant of direct binding: 2.5 s⁻¹ and 1.5 s⁻¹
[4]
  stoichiometry N (hHsp70 molecules per Hdj1 dimer): 2

## J+G/F-rich segment (JGF) of Hdj1, residues 1–141 (from UniProt P25685 1-141) (domain or fragment)
[5]
  apparent rate constant of direct binding: 0.7 s⁻¹ and 1.6 s⁻¹

From paper PMC7148561
